The numbers were not newly measured in patent US9040062B2, “Preparation for treatment of spinal cord injury” (SUMITOMO DAINIPPON PHARMA CO., LTD., priority 2010, dated 2015), which cites them from elsewhere.

In the data set the test system is cultural neuron. Particulars: short time.

B1: semaphorin 3A: endogenous protein that retracts the nerve growth cone and suppresses axonal growth (protein, UniProt Q14563 21-771, looked up)
Semaphorin-3A: NYQNGKNNVPRLKLSYKEMLESNNVITFNGLANSSSYHTFLLDEERSRLYVGAKDHIFSFDLVNIKDFQKIVWPVSYTRRDECKWAGKDILKECANFIKVLKAYNQTHLYACGTGAFHPICTYIEIGHHPEDNIFKLENSHFENGRGKSPYDPKLLTASLLIDGELYSGTAADFMGRDFAIFRTLGHHHPIRTEQHDSRWLNDPKFISAHLISESDNPEDDKVYFFFRENAIDGEHSGKATHARIGQICKNDFGGHRSLVNKWTTFLKARLICSVPGPNGIDTHFDELQDVFLMNFKDPKNPVVYGVFTTSSNIFKGSAVCMYSMSDVRRVFLGPYAHRDGPNYQWVPYQGRVPYPRPGTCPSKTFGGFDSTKDLPDDVITFARSHPAMYNPVFPMNNRPIVIKTDVNYQFTQIVVDRVDAEDGQYDVMFIGTDVGTVLKVVSIPKETWYDLEEVLLEEMTVFREPTAISAMELSTKQQQLYIGSTAGVAQLPLHRCDIYGKACAECCLARDPYCAWDGSACSRYFPTAKRRTRRQDIRNGDPLTHCSDLHHDNHHGHSPEERIIYGVENSSTFLECSPKSQRALVYWQFQRRNEERKEEIRVDDHIIRTDQGLLLRSLQQKDSGNYLCHAVEHGFIQTLLKVTLEVIDTEHLEELLHKDDDGDGSKTKEMSNSMTPSQKVWYRDFMQLINHPNLNTMDEFCEQVWKRDRKQRRQRPGHTPGNSNKWKHLQENKKGRNRRTHEFERAPRSV
On to B1, for which the “concentration inducing growth cone retraction” value is reported as 10 pM.
